# Paper PMC8599812 (Nucleic Acids Research, 2021)
# Read-outs that look alike come from different tables or passages of the source.
# B1: RECQ1^T1 (near full-length human RECQ1, amino acid 49–616) (enzyme, UniProt P46063 49-616, looked up)
# chain: CLEDSDAGASNEYDSSPAAWNKEDFPWSGKVKDILQNVFKLEKFRPLQLETINVTMAGKEVFLVMPTGGGKSLCYQLPALCSDGFTLVICPLISLMEDQLMVLKQLGISATMLNASSSKEHVKWVHAEMVNKNSELKLIYVTPEKIAKSKMFMSRLEKAYEARRFTRIAVDEVHCCSQWGHDFRPDYKALGILKRQFPNASLIGLTATATNHVLTDAQKILCIEKCFTFTASFNRPNLYYEVRQKPSNTEDFIEDIVKLINGRYKGQSGIIYCFSQKDSEQVTVSLQNLGIHAGAYHANLEPEDKTTVHRKWSANEIQVVVATVAFGMGIDKPDVRFVIHHSMSKSMENYYQESGRAGRDDMKADCILYYGFGDIFRISSMVVMENVGQQKLYEMVSYCQNISKCRRVLMAQHFDEVWNSEACNKMCDNCCKDSAFERKNITEYCRDLIKILKQAEELNEKLTPLKLIDSWMGKGAAKLRVAGVVAPTLPREDLEKIIAHFLIQQYLKEDYSFTAYATISYLKIGPKANLLNNEAHAITMQVTKSTQNSFRAESSQTCHSEQGDKKME
# B2: Rec20_FL/Rec20R_3oh 20/10-mer 3' tailed duplex (dsDNA)
# DNA 1: GGATCTCGACGCTCTCCCTT
# DNA 2: GTCGAGATCC
# B3: Fork30T_R_FL/Fork30T_F forked duplex (dsDNA)
# DNA 1: TTTTTTTTTTTTTTTTTTTTTTTTTTTTTTCGTACCCGATGTGTTCGTTC
# DNA 2: GAACGAACACATCGGGTACGTTTTTTTTTTTTTTTTTTTTTTTTTTTTTT
# B4: Rec20_FL/Rec20R 20 bp blunt duplex (dsDNA)
# DNA 1: GGATCTCGACGCTCTCCCTT
# DNA 2: AAGGGAGAGCGTCGAGATCC
# Columns and labels:
# [1] = biological target: the molecule itself; test: SEC
# [2] = biological target: T1, D2-Zn-WH helix4A (human, UniProt P46063 282-616, F420A;F424A;S427A;S428A); test: fluorescence anisotropy
# T1 sequence (P46063 282-616 F420A/F424A/S427A/S428A): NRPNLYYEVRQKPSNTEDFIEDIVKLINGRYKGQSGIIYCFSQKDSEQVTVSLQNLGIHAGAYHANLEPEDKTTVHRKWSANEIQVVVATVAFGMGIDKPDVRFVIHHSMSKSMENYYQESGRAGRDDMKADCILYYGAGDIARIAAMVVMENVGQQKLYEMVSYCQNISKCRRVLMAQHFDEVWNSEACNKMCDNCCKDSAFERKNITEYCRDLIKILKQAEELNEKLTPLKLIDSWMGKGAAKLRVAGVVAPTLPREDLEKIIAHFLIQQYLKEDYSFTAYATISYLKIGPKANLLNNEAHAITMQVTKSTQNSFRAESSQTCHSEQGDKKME
# [3] = biological target: T2, D2-Zn-WH (human, UniProt P46063 282-616); test: fluorescence anisotropy
# [4] = biological target: RECQ1T1 (human, UniProt P46063 49-616); test: fluorescence anisotropy
# [5] = biological target: RECQ1T1,helix4A (human, UniProt P46063 49-616, F420A;F424A;S427A;S428A); test: fluorescence anisotropy
# [6] = biological target: T2, D2-Zn-WH; test: fluorescence anisotropy; remark: listed apart in the source
# [7] = biological target: T2, D2-Zn-WH; test: fluorescence anisotropy; remark: listed apart in the source
# [8] = biological target: T1, D2-Zn-WH helix4A; test: fluorescence anisotropy; remark: listed apart in the source
binder,measurement,setting,value
B1,stoichiometry N,[1],2
B2,Kd,[2],5700 ± 1100 nM
same,Kd,[3],1970 ± 300 nM
B3,Kd,[4],87 ± 16 nM
same,Kd,[5],193 ± 27 nM
GGATCTCGACGCTCTCCCTT (ssDNA) [Rec20_FL ssDNA 20-mer],Kd,[6],1480 ± 110 nM
B4,Kd,[7],1170 ± 120 nM
same,Kd,[8],2080 ± 150 nM
